Results: the supplement of paper PMC7877785
± gives the uncertainty stated by the source.

Experiment: self-splicing fitness, log relative to wild type (ln ratio); higher = more splicing; Tetrahymena group I intron in knt gene, E. coli kanamycin selection, DiMSum; sequences stand for … in CUCUCU…GGAGGGAAAAGUUAUCAGGCAUGCACCUGGUAGCUAGUCUUUAAACCAAUAGAUUGCAUCGGUUUAAAAGGCAAGACCGUCAAAUUGCGGGAAAGGGGUCAACAGCCGUUCAGUACCAAGUCUCAGGGGAAACUUUGAGAUGGCCUUGCAAAGGGUAUGGUAAUAAGCUGACGGACAUGGUCCUAACCACGCAGCCAAGUCCUAAGUCAACAGAUCUUCUGUUGAUAUGGAUGCAGUUCACAGACUAAAUGUCGGUCGGGGAAGAUGUAUUCUUCUCAUAAGAUAUAGUCGGACCUCUCCUUAAUGGGAGCUAGCGGAUGAAGUGAUGCAACACUGGAGCCGCUGGGAACUAAUUUGUAUGCGAAAGUAUAUUGAUUAGUUUUGGAGUACUCGUGGUCG
Procedure, shortened: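 The eight P1ex-region nucleotides of an intron in the knt kanamycin-resistance gene on pET-22b(+) were all randomised and the library put into E. coli BL21(DE3). Six replicate transformations were grown overnight at 37°C or 30°C on LB agar with or without 25 μg/mL kanamycin, together with 100 μg/mL carbenicillin, 50 μM IPTG and 0.2% rhamnose. Colonies were pooled and amplicon-sequenced on an Illumina HiSeq 2500. Fitness from DiMSum is the error-weighted combination of wild-type-normalised replicate fold changes, kanamycin over none.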

Sequence	self-splicing fitness (ln) (30 °C)	self-splicing fitness (ln) (37 °C)
GACGAGCAAUAUUACGCAGA	-3.74 ± 0.33	-3.45 ± 0.42
GACGAGCAAUAUUACGCCUA	-0.714 ± 0.32	–
GACGAGCAAUAUUACGCGAG	-2.3 ± 0.17	-2.85 ± 0.26
GACGAGCAAUAUUACGCGGU	-4.23 ± 0.31	-1.83 ± 0.2
GACGAGCAAUAUUACGCUAG	-3.19 ± 0.19	-2.47 ± 0.18
GACGAGCAAUAUUACGGAAC	-1.3 ± 0.19	-2.43 ± 0.35
GACGAGCAAUAUUACGGAUC	-2.68 ± 0.39	-1.75 ± 0.44
GACGAGCAAUAUUACGGCAG	-2.04 ± 0.25	-2.51 ± 0.38
GACGAGCAAUAUUACGGCCG	-2.02 ± 0.25	-0.723 ± 0.37
GACGAGCAAUAUUACGGCGC	-1.79 ± 0.093	-0.8 ± 0.11
GACGAGCAAUAUUACGGCGU	-3.7 ± 0.32	-1.9 ± 0.26
GACGAGCAAUAUUACGGUAA	-3.65 ± 0.47	-2.33 ± 0.33
GACGAGCAAUAUUACGUACU	-1.64 ± 0.18	-0.775 ± 0.14
GACGAGCAAUAUUACGUAUG	-2.4 ± 0.17	-1.58 ± 0.16
GACGAGCAAUAUUACGUCAU	-2.2 ± 0.2	-3.16 ± 0.43
GACGAGCAAUAUUACGUCCA	-2.11 ± 0.32	-2.68 ± 0.31
GACGAGCAAUAUUACGUCCC	–	-0.0984 ± 0.5
GACGAGCAAUAUUACGUCUA	-2.4 ± 0.23	-1.43 ± 0.13
GACGAGCAAUAUUACGUCUG	-3.64 ± 0.22	-2.53 ± 0.2
GACUAGCAAUAUUACGAAAG	-2.97 ± 0.16	-1.8 ± 0.2

Sequence	self-splicing fitness (ln) (30 °C)	self-splicing fitness (ln) (37 °C)
GACUAGCAAUAUUACGAACG	-1.34 ± 0.11	-0.144 ± 0.15
GACUAGCAAUAUUACGAACU	0.186 ± 0.15	1.04 ± 0.22
GACUAGCAAUAUUACGAAGC	-2.18 ± 0.18	-1.55 ± 0.18
GACUAGCAAUAUUACGAAUC	-2.28 ± 0.32	-1.83 ± 0.28
GACUAGCAAUAUUACGACAU	-0.511 ± 0.012	-0.122 ± 0.032
GACUAGCAAUAUUACGAGCU	-1.61 ± 0.13	-0.918 ± 0.093
GACUAGCAAUAUUACGAGGC	–	-2.23 ± 0.3
GACUAGCAAUAUUACGAUAC	-1.31 ± 0.07	-0.489 ± 0.092
GACUAGCAAUAUUACGAUCG	-1.24 ± 0.13	-0.31 ± 0.21
GACUAGCAAUAUUACGAUCU	-0.896 ± 0.087	-1.38 ± 0.096
GACUAGCAAUAUUACGAUGA	-0.535 ± 0.1	-1.08 ± 0.08
GACUAGCAAUAUUACGCCAU	-2.02 ± 0.12	-1.32 ± 0.14
GACUAGCAAUAUUACGCCGC	-3.31 ± 0.21	-1.65 ± 0.2
GACUAGCAAUAUUACGCGAU	-2.8 ± 0.21	-2.42 ± 0.3
GACUAGCAAUAUUACGCGCA	-0.593 ± 0.16	-0.286 ± 0.18
GACUAGCAAUAUUACGGAUA	-1.4 ± 0.09	-0.349 ± 0.09
GACUAGCAAUAUUACGGCAU	-0.26 ± 0.059	0.291 ± 0.081
GACUAGCAAUAUUACGGCGA	-0.738 ± 0.079	-0.303 ± 0.081
GACUAGCAAUAUUACGGGCG	-0.65 ± 0.061	-0.282 ± 0.071
